Source: article PMC3870021

Assays:
EPCR (Homo sapiens) = EPCR (Homo sapiens) (UniProt Q9UNN8); settings: cited from earlier work
[1] = target: recombinant human EPCR (extracellular domain Met1-Thr209, C-terminal poly-histidine tag) (human) (UniProt Q9UNN8); assay: SPR
recombinant human EPCR (extracellular domain Met1-Thr209, C-terminal poly-histidine tag) (human), sequence (Q9UNN8 18-209): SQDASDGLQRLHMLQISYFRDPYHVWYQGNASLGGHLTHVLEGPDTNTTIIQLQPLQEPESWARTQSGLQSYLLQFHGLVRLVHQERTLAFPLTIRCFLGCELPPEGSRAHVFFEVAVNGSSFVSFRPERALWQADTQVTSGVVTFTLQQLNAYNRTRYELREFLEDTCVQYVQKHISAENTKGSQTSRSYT

EPCR (Homo sapiens), sequence (Q9UNN8 18-210): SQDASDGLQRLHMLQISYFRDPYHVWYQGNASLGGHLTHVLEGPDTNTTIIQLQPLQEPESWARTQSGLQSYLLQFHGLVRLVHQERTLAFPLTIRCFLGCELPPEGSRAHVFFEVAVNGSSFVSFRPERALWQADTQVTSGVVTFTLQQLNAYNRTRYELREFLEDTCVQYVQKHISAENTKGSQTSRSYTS

Row | Substance | Kd (EPCR (Homo sapiens)) | Kd [1]
1 | Activated protein C (from UniProt P04070) | 32 nM | –
2 | activated protein C (commercial human purified APC) (from UniProt P04070 43-197) (enzyme) | – | 1000 nM
3 | recombinant full-length DC8-containing PfEMP1 IT4VAR20 (natural protein) | – | 10 nM
